Measurements reported in US20220281990A1 (MERRIMACK PHARMACEUTICALS, published 2022).

T1: Human TNFR2 expressed on cells (CHO-hTNFR2 cells) (human, UniProt P20333 23-461)
T1 construct: also called CHO cells overexpressing human TNFR2; human TNFR2 reporter cells (HEK293)
T1 sequence: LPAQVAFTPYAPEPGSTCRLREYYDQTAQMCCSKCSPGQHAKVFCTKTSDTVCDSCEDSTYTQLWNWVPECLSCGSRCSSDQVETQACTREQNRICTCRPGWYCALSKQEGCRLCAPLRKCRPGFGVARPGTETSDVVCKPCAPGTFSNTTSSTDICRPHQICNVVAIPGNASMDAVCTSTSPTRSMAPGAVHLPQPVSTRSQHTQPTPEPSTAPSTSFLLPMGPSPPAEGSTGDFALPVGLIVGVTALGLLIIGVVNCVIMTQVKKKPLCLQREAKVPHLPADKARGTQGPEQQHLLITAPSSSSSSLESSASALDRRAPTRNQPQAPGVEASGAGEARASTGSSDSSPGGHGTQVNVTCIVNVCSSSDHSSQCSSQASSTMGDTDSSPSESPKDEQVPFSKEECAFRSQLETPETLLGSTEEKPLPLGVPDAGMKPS

T2: recombinant human TNFR2-hFc protein (human, UniProt P20333 23-257)
T2 construct: also called hTNFR2-Fc; human TNFR2-Fc; not shown: human Fc
T2 sequence: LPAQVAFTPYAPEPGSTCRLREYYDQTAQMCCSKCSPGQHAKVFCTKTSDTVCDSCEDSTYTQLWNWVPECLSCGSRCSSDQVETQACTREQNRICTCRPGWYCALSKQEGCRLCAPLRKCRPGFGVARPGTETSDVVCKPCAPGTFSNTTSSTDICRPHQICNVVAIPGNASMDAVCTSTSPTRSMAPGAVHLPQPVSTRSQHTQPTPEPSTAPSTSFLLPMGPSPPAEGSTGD


Columns and labels:
[1] = target: T1, Human TNFR2 expressed on cells …; assay: flow cytometry; soluble scFv inhibiting TNF (1 nM) binding to CHO-hTNFR2 cells (FIG. 3)
[2] = target: T1, Human TNFR2 expressed on cells …; assay: flow cytometry, titration of soluble scFv (up to 300 nM) on CHO-hTNFR2 cells; one site binding non-linear fit
[3] = target: T2, recombinant human TNFR2-hFc protein; assay: flow cytometry; hTNFR2-Fc binding to scFv displayed on yeast; one site binding fit (FIG. 4)
[4] = target: T1, Human TNFR2 expressed on cells …; assay: flow cytometry; soluble scFv inhibiting TNF (1 nM) binding to CHO-hTNFR2 cells (FIGS. 5A-5B)
[5] = target: T2, recombinant human TNFR2-hFc protein; assay: flow cytometry; hTNFR2-Fc binding to scFv displayed on yeast; one site binding fit (FIG. 6B)
[6] = target: T2, recombinant human TNFR2-hFc protein; assay: flow cytometry; TNFR2-Fc binding to scFv displayed on yeast (FIGS. 6A-6C)
[7] = target: T2, recombinant human TNFR2-hFc protein; assay: flow cytometry; hTNFR2-Fc binding to scFv displayed on yeast; one site binding fit (FIG. 6A)

| Binder | IC50 [1] [nM] | Kd [2] [nM] | Kd [5] [nM] | fold higher affinity (vs parental scFv) [6] [fold] | other results |
| --- | --- | --- | --- | --- | --- |
| UC2 (S4-2 1D10) scFv (scFv) scFv: QVQLLESGGGLVQPGGSLRLSCAASGFTFSTYAMSWVRQAPGKGLEWVSIISDGGDATFYADSVKGRFTISRDNSKNTLYLQMNSLRAEDTAVYYCARDGTSAAAFDSWGQGTLVTVSSASSGGSTSGSGKPGSGEGSSGSARDIQMTQSPSSLSASVGDRVTITCQASQDITNFLNWYQQKPGKAPKLLIYDASTLQTGVPSRFSGSGSGTDFTFTISSLQPEDIATYYCQQSDSYPITFGQGTKVEIKR | – | 14.4 | – | – | Kd [3]: 42.8 nM; IC50 [4]: 39.6 nM |
| UC2.3.10 (S4-2 1D10-1G9-1G2) scFv (scFv) scFv: QVQLLESGGGLVQPGGSLRLSYAASGFTFSTYAMSWIRQAPGKGLEWVSIISDGGDATVYADSVKGRFTISRDNSKNTLYLQMNSLRAEDTAVYYCARDRTSAAAFDSWGQGTLVTVSSASSGGSTSGSGKPGSGEGSSGSARDIQMTQSPSSLSASVGDRVTITCQASQDITNFLNWYQQKPGKAPKLLIYDASTLQTGVPSRFSGSGSGTDFTFTISSLQPEDIATYYCQQSDSYPITFGQGTKVEIKR | – | – | 0.63 | 10 | – |
| UC2.3.9 (S4-2 1D10-1G9-1F12) scFv (scFv) scFv: QVQLLESGGGLVQPGGSLRLSCAASGFTFSTYAMSWIRQAPGKGLEWVSIISDGGDATVYADSVKGRFTISRDNNRNTLYLQMNSLRAEDTAVYYCARDGTSAAAFDSWGQGTLVTVSSASSGGSTSGSGKPGSGEGSSGSARDIQMTQSPSSLSASVGDRVTITCHASQDITNFLNWYQQKPGKAPKLLIYDASTLQTGVPSRFSGSGSGTDFTFTISSLQPEDIATYYCQQSDSYPITFGQGTKVEIKR | – | – | 1.79 | 10 | – |
| UC2.3.11 (S4-2 1D10-1G9-1G3) scFv (scFv) scFv: QVQLLESGGGLVQPGGSLRLSCAVSGFTFSTYAMSWIRQAPGKGLEWVSIISDGGDATVYADSVKGRFTISRDNSKNTLYLQMNSLRAEDTAVYYWARDGTSAAAFDSWGQGTLVTVSSANSGGSTSGSGKPGSGEGSSGSARDIQMTQSPSSLSASVGDRVTITCQASQDITNFLNWYQQKPGKAPKLLIYDASTLQTGVPSRFSGSGSGTDFTFTISSLQPEDIATYYCQQSDSYPITFGQGTKVEIKR | – | – | 1.52 | 10 | – |
| UC1 (S4-2 1B5) scFv (scFv) scFv: QVQLLESGGGLVQPGGSLRLSCAASGFSFTSYAMTWVRQAPGKGLEWVSGISGGGAATFYADSVKGRFTISRDNSKNTLYLQMNSLRAEDTAVYYCARQSQYVGGFDYWGQGTLVTVSSASSGGSTSGSGKPGSGEGSSGSARQSVLTQPPSVSGAPGQRVTISCTGSSSNIGAGYGVHWYQQLPGTAPKLLIYGNTNRPSGVPDRFSGFKSGTSASLAITGLQAEDEADYYCQSYDSSLSGWVFGGGTKLTVLG | – | 8.17 | – | – | Kd [3]: 18.1 nM; IC50 [4]: 4.44 nM |
| UC1.2 (S4-2 1B5-1A5) scFv (scFv) scFv: QVQLLESGGGLVQPGGSLRLSCAASGFSFTSYAMTWVRQAPGKGLEWVSGISGGGAATFYADSVKGRFTISRDNSKNTLYLQMNSLRAEDTAVYYCARQSQYVGGFDYWGQGTLVTVSSASSGGSTSGSGKPDSGEGSSGSARQSVLTQPPSVSGAPGQRVTISCTGSSSNFGAGYGVHWYQQLPGTAPKLLIHGNTNRPSGVPDRFSGFKSGTSASLAITGLQAEDEADYYCQSYDSSLSGWVFGGGTKLTVLG | – | – | – | 10 | Kd [7]: 0.57 nM |
| UC1.3 (S4-2 1B5-1B3) scFv (scFv) scFv: QVQLLESGGGLVQPGGSLRLSCAASGFSFTSYAMTWVRQAPGKGLEWVSGISGDGAATFYADSVKGRFTISRDNSKNTLYLQMNSLRAEDTAVYYCARQSQYVGGFDYWGQGTLVTVSSASSGGSTSGSGKPDSGEGSSGSARQSVLTQPPSVSGAPGQRVTISCTGSSSNFGAGYGVHWYQQLPGTAPKLLIHGNTNRPSGVPDRFSGFKSGTSASLAITGLQAEDEADYYCQSYDSSLSGWVFGGGTKLTVLG | – | – | – | 10 | Kd [7]: 0.64 nM |

Continued, in another order:

| IC50 [1] [nM] | Kd [2] [nM] | Kd [5] [nM] | fold higher affinity (vs parental scFv) [6] [fold] | Binder | other results |
| --- | --- | --- | --- | --- | --- |
| 69.7 | 42 | – | – | UC6 (9-1A6) scFv (scFv, Soluble scFv) scFv: QVQLVQSGAEVKKPGSSVKVSCKASGDSFNNFGISWVRQAPGQGLEWMGGIVPVLGIATYAQKFQGRVTITADESTSTAYMELSSLRSEDTAVYYCARGSAWYDGSFQYWGQGTLVTVSSASSGGSTSGSGKPGSGEGSSGSAREIVLTQSPGTLSLSPGERATLSCRASQSVSSTFLAWYQQKPGQAPRLLIYDASTRATGIPDRFSGSDSGTDFTLTISRLEPEDFAVYYCQQYDSWPFTFGQGTKVEIKR | – |
| – | – | 1.98 | 10 | UC2.3.12 (S4-2 1D10-1G9-1H1) scFv (scFv) scFv: QVQLLESGGGLVQPGDSLRLSCAASGFTFSTYAMSWIRQAPGKGLEWVSIISDGGDATVYADSVKGRFTISRDNNRNTLYLQMNSLRAEDTAVYYCARDGTSAAAFDSWGQGTLVTVSSASSGGSTSGSGKPGSGEGSSGSARDIQMTQSPSSLSASVGDRVTITCQASQDITNFLNWYQQKPGKAPKLLIYDASTLQTGVPSRFSGSGSGTNFTFTISSLQPEDIATYYCQQSDSYPITFGQGTKVEIKR | – |
| 25.6 | 48.9 | – | – | UC7 (9-1B5) scFv (scFv, Soluble scFv) scFv: QVQLVQSGAEVKKPGSSVKVSCKASGDTFSSYGVSWVRQAPGQGLEWMGRIVPVFGIANYAQKFQGRVTITADESTSTAYMELSSLRSEDTAVYYCARQSPYVTYSSYYFDYWGQGTLVTVSSASSGGSTSGSGKPGSGEGSSGSAREIVLTQSPGTLSLSPGERATLSCRASQSVSNNFLAWYQQKPGQAPRLLIYDASTRATGIPDRFSGSGSGTDFTLTISRLEPEDFAVYYCQQYGSWPITFGQGTKVEIKR | – |
| 746 | 14.5 | – | – | UC5 (8-2A10) scFv (scFv, Soluble scFv) scFv: QVQLLESGGGLVQPGGSLRLSCAASGFTFNTYAMTWVRQAPGKGLEWVSAISDSGGDTFYADSVKGRFTISRDNSKNTLYLQMNSLRAEDTAVYYCARDGTYAARFDYWGQGTLVTVSSASSGGSTSGSGKPGSGEGSSGSARDIQMTQSPSSLSASVGDRVTITCQASQDISNYLNWYQQKPGKAPKLLIYDASTLETGVPSRFSGSGSGTDFTFTISSLQPEDIATYYCQQSDSFPITFGQGTKVEIKR | – |
| 110 | 19.3 | – | – | UC3 (S4-2 1E5) scFv (scFv, Soluble scFv) scFv: QVQLLESGGGLVQPGGSLRLSCAASGFSFSSYAMSWVRQAPGKGLEWVSGISAGGGETFYADSVKGRFTISRDNSKNTLYLQMNSLRAEDTAVYYCARVHPISYGFDIWGQGTLVTVSSASSGGSTSGSGKPGSGEGSSGSARDIQMTQSPSSLSASVGDRVTITCQASQDIKKYLNWYQQKPGKAPKLLIYDASTLQTGVPSRFSGSGSGTDFTFTISSLQPEDIATYYCQQSDNTPVTFGQGTKVEIKR | – |
| 21.5 | 13.4 | – | – | UC 8 (9-2A4) scFv (scFv, Soluble scFv) scFv: QVQLVQSGAEVKKPGSSVKVSCKASGDTFSNYGFSWVRQAPGQGLEWMGGIVPVFGIATYAQKFQGRVTITADESTSTAYMELSSLRSEDTAVYYCARDYSYYPDDPRYFEYWGQGTLVTVSSASSGGSTSGSGKPGSGEGSSGSAREIVLTQSPGTLSLSPGERATLSCRASQSVSSTFLAWYQQKPGQAPRLLIYAASSRATGIPDRFSGSGSGTDFTLTISRLEPEDFAVYYCQQYGSWPLTFGQGTKVEIKR | – |
